Reference: patent publication US20090060916A1 (published 2009)
Substitutions are numbered along the chain they refer to. Several values for one entry are separate records, joined by “and”; a condition that tells them apart may be missing. Identical values can stand only once. Like-named read-outs stand apart in the source and are kept apart here. Each block holds one binder with its values, some of them ahead of it.

Tests used:
human IL-13 [1] = target: T1, human IL-13 (human, UniProt P35225 35-146, biotinylated on the Biacore chip); test: cell-based or functional assay
T1 sequence (P35225 35-146 limits assumed): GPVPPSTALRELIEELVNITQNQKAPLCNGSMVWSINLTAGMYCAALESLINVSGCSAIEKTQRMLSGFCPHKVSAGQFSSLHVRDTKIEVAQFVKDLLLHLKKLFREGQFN

human IL-13 [2] = target: T1, human IL-13; test: cell-based or functional assay; remark: listed apart in the source
human IL-13 [3] = target: T1, human IL-13; test: IL-13 RBA
[4] = target: variant IL-13 (R130Q) (human), P35225; test: cell-based or functional assay
variant IL-13 (R130Q) (human), P35225, sequence (P35225 35-146, stated change not applied): as the sequence (P35225 35-146 limits assumed) above

human IL-13 [5] = target: T1, human IL-13; test: IL-13 receptor alpha2 RBA, competition
Experimental: (§1) The plate was incubated for seven hours before being read in the 8200 cellular detection system (Applied Biosystems).

human IL-13 [6] = target: T1, human IL-13; test: IL-13 sandwich ELISA, competition with coating antibody
Experimental: (§2) A MAXISORP™ plate (high protein binding ELISA plate, Nunc, Denmark) was coated overnight with 2.5 μg/ml coating antibody (Module Set, Bender MedSystems, Vienna, Austria), then washed once with 0.05% (v/v) Tween 20 in PBS before blocking with 0.5% (w/v) BSA 0.05% (v/v) Tween 20 in PBS. […] The plate was then incubated with TMB substrate (KPL, Gaithersburg, USA), and the reaction was stopped by the addition of HCl and the absorbance read at 450 nm.

human IL-13 [7] = target: T1, human IL-13; test: cell-based or functional assay; remark: listed apart in the source
human IL-13 [8] = target: T1, human IL-13; test: DOM10 RBA (IL-13 sandwich ELISA per paragraph 473)
Experimental: as §2
These in-line fusions were constructed and expressed as described above. […] After this incubation, the level of cell proliferation was determined.

human IL-13 [9] = target: T1, human IL-13; test: IL-13 BIAcore binding assay
human IL-13 [10] = target: T1, human IL-13; test: IL-13 BIAcore binding assay; remark: listed apart in the source
human IL-13 [11] = target: T1, human IL-13; test: cell-based or functional assay; remark: listed apart in the source
human IL-13 [12] = target: T1, human IL-13; test: IL-13 receptor alpha2 RBA, competition; remark: listed apart in the source
Experimental: as §1

human IL-13 [13] = target: T1, human IL-13; test: Biacore SPR, IL-13 surface
human IL-4 [14] = target: T2, human IL-4 (human, UniProt P05112 25-153, biotinylated in the receptor binding assay and on the Biacore chip); test: Biacore SPR, biotinylated IL-4 on SA chip, co-inject
T2 construct: also called interleukin-4; biotinylated IL-4
T2 sequence (looked up): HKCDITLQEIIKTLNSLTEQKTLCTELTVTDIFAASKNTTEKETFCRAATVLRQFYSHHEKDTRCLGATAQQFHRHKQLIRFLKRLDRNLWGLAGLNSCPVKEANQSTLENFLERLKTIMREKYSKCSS
Experimental: Analytes were passed over the antigen-coated flow-cell, with in-line referencing against a blank flow-cell, at a flow rate of 30 μl/min in HBS-EP running buffer (Biacore). The first dAb was injected, followed immediately by injection of the second dAb using the Biacore's co-inject function.

rhesus IL-4 = target: T3, rhesus IL-4 (rhesus, UniProt P51492 25-153); test: inferred from TF-1 proliferation with rhesus IL-4
T3 sequence (looked up): T2 sequence (looked up) with K2N, D4H, T6A, Q8R, K12E, E26K, V29I, F33L, N111D
Experimental: (§3) The mixture was incubated for 72 hours at 37° C. 5% CO₂. […] 96® reagent (colorometric reagent for determining viability, Promega, Madison, USA) was then added and the number of cells per well was quantified by measuring the absorbance at 490 nm.
(§4) A dose-response of the dAb will determine the ND50 in this set up.

human IL-4 [15] = target: T2, human IL-4; test: screening of the affinity maturation output; IL-4 RBA and cell assay
human IL-4 [16] = target: T2, human IL-4; test: IL-4 RBA: ELISA, IL-4R/Fc coated, biotinylated IL-4
Source text: The wells were washed three times with 0.1% (v/v) Tween 20 in PBS, followed by three washes with PBS, before blocking with 2% (w/v) BSA in PBS. […] The reaction was stopped by the addition of HCl and the absorbance read at 450 nm.

cynomolgous IL-4 = target: T4, cynomolgous IL-4 (cynomolgous, UniProt P79339 25-153); test: inferred from TF-1 proliferation with cynomolgous IL-4
T4 construct: also called Cyno IL-4
T4 sequence: T2 sequence (looked up) with E26K, V29I, F33L
Experimental: as §3, §4

B1: DOM10-176-535 (other)
VL: DIQMTQSPSSLSASVGDRVTITCRASQWIGPYLNWYQQKPGKAPKPLIYMGYWAPSGVPSRFSGSGSGTDFTLTISSLQPEDFATYYCQQDLYPPFTFGQGTKVEIKR
notes: Vk dAb
ND50, IL-13 induced TF-1 cell proliferation (human IL-13 [1]): 0.77 nM | IC50, TF-1 proliferation with human IL-13 (human IL-13 [2]): 6 nM | IC50 (human IL-13 [3]): ~0.5 nM | IC50, TF-1 proliferation with variant IL-13 (R130Q) [4]: 7.8 nM | IC50 (human IL-13 [5]): 7.9 nM | IC50 (human IL-13 [6]): 1 nM

B2: DOM10-275-1 (other)
VH: EVQLLESGGGLVQPGGSLRLSCAASGFTFDREEMDWVRQAPGKGLEWVSTISPSGRKTYYADSVKGRFTISRDNSKNTLYLQMNSLRAEDTAVYYCAKAYTGFDYWGQGTLVTVSS
notes: VH dAb
IC50, IL-13 cell binding assay (so in the source) (human IL-13 [7]): 37 nM | IC50 (human IL-13 [8]): 31.3 nM | Kd (human IL-13 [9]): 25 nM and 28 nM and 27 nM | IC50 (human IL-13 [6]): 38 nM

B3: DOM10-276-15 (other)
VH: B2 VH with D30R, R31D, E32Y, T50S, S54N, R56S, K57E, Y59N, G102S
notes: VH dAb
Kd (human IL-13 [10]): 1.5 nM | IC50, IL-13 cell binding assay (so in the source) (human IL-13 [11]): 90 nM | IC50 (human IL-13 [6]): 100 nM

B4: DOM10-53-316 (other)
VH: GVQLLESGGGLVQPGGSLRLSCAASGFIFAWYDMGWARQAPGKGLEWVSSIDWHGEVTYYADSVKGRFTISRDNSKNTLYLQMNSLRAEDTAVYYCATAEDEPGYDYWGQGTLVTVSS
notes: VH dAb
IC50, TF-1 proliferation with human IL-13 (human IL-13 [2]): 0.39 nM | IC50, TF-1 proliferation with variant IL-13 (R130Q) [4]: 0.52 nM | IC50 (human IL-13 [5]): 1.2 nM | IC50 (human IL-13 [12]): 2 nM

Second part, the binder after the results:

binding result (human IL-13 [13]): binds
B5: DOM10-53-386 (other)
VH: B4 VH with A37V, E56K, V57I
notes: VH dAb

binding result (human IL-4 [14]): binds
B6: DOM9-155-1 (other)
VL: DIQMTQSPSSLSASVGDRVTITCRASLDIGDWLHWYQQKPGKAPKLLIGWGSGLQSGVPSRFSGSGSGTDFTLTISSLQPEDFATYYCLQEGWGPPTFGQGTKVEIKR
notes: Vk dAb

binding result (rhesus IL-4): binds | binding result (human IL-4 [15]): binds
B7: DOM9-155-77 (other)
VL: B6 VL with L27R, D28H, G30S, G49P, G51A, Q55W
notes: Vk dAb

binding result (rhesus IL-4): binds | IC50 (human IL-4 [16]): 0.73 nM and 1 nM | binding result (cynomolgous IL-4): binds
B8: DOM9-155-25 (other)
VL: B6 VL with L27R, D28P, G30S, G49A, G51A, G53T, Q55D
notes: Vk dAb
